Test results reported in patent US6500919B1, “Melanoma associated antigenic polypeptide, epitopes thereof and vaccines against melanoma” (IntroGene B.V., priority 1994, dated 2002).

Legend:
[1] = test system: peptide loaded HLA-A2.1+ T2 cells
HLA-A2.1 = target: T1, HLA-A2.1 (Homo sapiens, UniProt P04439, D140Y/D185E/D98H/E176V/E277Q/G131W/G231S/I119V/I121R/I166T/I218V/L300P/L318F/N151K/N90K/P208A/P217A/Q86G/Q94H/R138H/R169H/T345S); assay: HLA-A2.1 peptide binding assay (HLA-A2.1 stabilization on processing defective T2 cells, flow cytometry with mAb BB7.2)
T1 construct: HLA-A2.1 stabilization at the cell surface was determined by flow cytometry using mAb BB7.2; endogenous in cells; host or cells: T2 cells (processing defective, HLA-A2.1+)

[2] = target: T2, HLA-A2.1 (on processing defective T2 cells) (human); assay: peptide binding assay on processing defective T2 cells
T2 construct: also called MHC HLA-A2.1 molecule

Molecule	binding to the MHC HLA-A2.1 molecule (HLA-A2.1)	also measured
CC(C)C[C@H](NC(=O)[C@H](CCCNC(=N)N)NC(=O)[C@H](CC(C)C)NC(=O)[C@@H](NC(=O)[C@H](C)NC(=O)[C@@H](NC(=O)CNC(=O)[C@H](CC(=O)O)NC(=O)[C@H](CC(C)C)NC(=O)[C@@H](N)CC(C)C)[C@@H](C)O)[C@@H](C)O)C(=O)O [L-L-D-G-T-A-T-L-R-L]	–	recognized by anti-melanoma cytotoxic T lymphocytes in the context of HLA-A2.1 [1]: recognized
LLDGTATLRL (also called gp100 amino acids 457-466) [gp100 peptide LLDGTATLRL]	–	binding result [2]: binds

Now from value to molecule, other results behind:

binding to the MHC HLA-A2.1 molecule (HLA-A2.1)	Molecule	also measured
bind	M-L-G-T-H-T-M-E-V (MLGTHTMEV)	–
bind	R-L-M-K-Q-D-F-S-V (RLMKQDFSV)	–
bind	V-L-P-D-G-Q-V-I-W-V (VLPDGQVIWV)	–
